Assay [1] deals with T1, cynomolgus LIV-1 (cynomolgus, UniProt A0A2K5WH46 30-741). Description: FACS, HEK293/Cyno_LIV-1 cells. Summed up:
(§1)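 HEK293 cells over-expressing human or cyno LIV-1 incubated with chimeric Abs (from 100 nM, 5-fold dilutions, 8 points) for 60 min at 4 °C, then fluorescent secondary antibody 30 min at 4 °C; washes in 2% FBS/PBS. Binding read by flow cytometry; EC50 from the titration curve.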

In assay [2] the target is T1, cynomolgus LIV-1. Description: FACS, HEK293/Cyno_LIV-1 cells. The procedure:
(§2) Cell based binding of optimal leads to different species LIV-1 expressing cells were assessed using flow cytometry. Briefly, the cells were incubated with optimal leads (from 100 nM, 6 folds dilution, 8 points). After incubation at 4° C. for 60 minutes, the cells were washed with 2% FBS/PBS buffer twice, then stained with fluorescent conjugated secondary antibody at 4° C. for 30 minutes. After that the cells were washed twice and resuspended in 80 μL of 2% FBS/PBS buffer. Fluorescent signal of binding was detected using Agilent. The EC50 was calculated using the GraphPad Software (LaJolla, CA).
The source holds these as a separate data set.
Target sequence in this assay (A0A2K5WH46 entry or part of it): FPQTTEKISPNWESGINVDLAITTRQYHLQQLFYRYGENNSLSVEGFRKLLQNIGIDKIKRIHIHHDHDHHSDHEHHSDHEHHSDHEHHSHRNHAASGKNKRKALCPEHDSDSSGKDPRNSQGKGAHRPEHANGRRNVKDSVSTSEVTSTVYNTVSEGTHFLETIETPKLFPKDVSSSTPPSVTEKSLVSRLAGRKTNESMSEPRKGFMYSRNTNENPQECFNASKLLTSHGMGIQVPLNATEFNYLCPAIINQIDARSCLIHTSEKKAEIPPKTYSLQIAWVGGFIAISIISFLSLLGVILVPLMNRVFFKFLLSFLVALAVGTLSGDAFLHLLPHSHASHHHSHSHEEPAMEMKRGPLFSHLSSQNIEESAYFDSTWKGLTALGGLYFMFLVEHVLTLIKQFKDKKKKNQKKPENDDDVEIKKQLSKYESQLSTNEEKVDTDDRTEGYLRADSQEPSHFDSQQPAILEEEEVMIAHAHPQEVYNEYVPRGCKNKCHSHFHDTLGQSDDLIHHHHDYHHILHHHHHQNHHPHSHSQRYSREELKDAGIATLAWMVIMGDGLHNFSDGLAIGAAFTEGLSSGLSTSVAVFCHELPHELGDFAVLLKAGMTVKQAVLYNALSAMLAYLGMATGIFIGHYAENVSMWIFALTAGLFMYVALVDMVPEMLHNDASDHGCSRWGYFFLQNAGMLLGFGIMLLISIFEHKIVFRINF

In assay [3] the target is T2, human LIV-1 (human, UniProt Q13433 29-755).
T2 construct: whole, on cells; also called H-LIV1
T2 sequence (looked up): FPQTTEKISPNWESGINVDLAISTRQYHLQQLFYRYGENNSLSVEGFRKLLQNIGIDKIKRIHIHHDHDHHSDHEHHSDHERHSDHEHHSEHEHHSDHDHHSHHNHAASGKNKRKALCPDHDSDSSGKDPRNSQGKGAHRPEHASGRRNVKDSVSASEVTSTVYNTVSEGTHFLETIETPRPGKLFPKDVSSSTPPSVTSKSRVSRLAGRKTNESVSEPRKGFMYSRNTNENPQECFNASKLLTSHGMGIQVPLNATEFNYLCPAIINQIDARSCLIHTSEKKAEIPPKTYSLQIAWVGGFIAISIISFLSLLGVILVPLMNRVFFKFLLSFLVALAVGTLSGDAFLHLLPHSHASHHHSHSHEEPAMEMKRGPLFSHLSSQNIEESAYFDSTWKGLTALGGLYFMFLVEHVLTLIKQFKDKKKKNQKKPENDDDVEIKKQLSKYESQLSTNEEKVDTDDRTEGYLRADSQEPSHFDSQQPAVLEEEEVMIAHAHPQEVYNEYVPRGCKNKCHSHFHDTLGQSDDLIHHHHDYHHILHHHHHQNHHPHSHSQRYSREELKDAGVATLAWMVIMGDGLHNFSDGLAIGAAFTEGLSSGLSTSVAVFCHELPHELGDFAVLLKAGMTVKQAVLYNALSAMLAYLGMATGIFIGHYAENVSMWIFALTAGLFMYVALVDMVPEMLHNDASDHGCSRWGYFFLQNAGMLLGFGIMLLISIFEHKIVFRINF
Description: FACS, HEK293/H_LIV-1 cells. Summed up:
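HEK293 cells expressing human LIV-1 incubated with humanized antibodies (from 100 nM, 6-fold dilutions, 8 points) at 4 °C for 60 min. Bound antibody detected with a fluorescent secondary antibody (4 °C, 30 min) by flow cytometry.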

The target of assay [4] is rhesus LIV-1 (rhesus, UniProt H9FSJ2 30-735). Description: FACS, HEK293/Rhe_LIV-1 cells. As to the method: Humanized antibodies 5D6B10.z7, 124H4D11.p2.z4 and 290F10G10.p1.z2 were selected for further testing. In this example, FACS cross binding of these selected antibodies to LIV-1 of different species were assessed using flow cytometry.
Sequence of rhesus LIV-1 (H9FSJ2 entry or part of it): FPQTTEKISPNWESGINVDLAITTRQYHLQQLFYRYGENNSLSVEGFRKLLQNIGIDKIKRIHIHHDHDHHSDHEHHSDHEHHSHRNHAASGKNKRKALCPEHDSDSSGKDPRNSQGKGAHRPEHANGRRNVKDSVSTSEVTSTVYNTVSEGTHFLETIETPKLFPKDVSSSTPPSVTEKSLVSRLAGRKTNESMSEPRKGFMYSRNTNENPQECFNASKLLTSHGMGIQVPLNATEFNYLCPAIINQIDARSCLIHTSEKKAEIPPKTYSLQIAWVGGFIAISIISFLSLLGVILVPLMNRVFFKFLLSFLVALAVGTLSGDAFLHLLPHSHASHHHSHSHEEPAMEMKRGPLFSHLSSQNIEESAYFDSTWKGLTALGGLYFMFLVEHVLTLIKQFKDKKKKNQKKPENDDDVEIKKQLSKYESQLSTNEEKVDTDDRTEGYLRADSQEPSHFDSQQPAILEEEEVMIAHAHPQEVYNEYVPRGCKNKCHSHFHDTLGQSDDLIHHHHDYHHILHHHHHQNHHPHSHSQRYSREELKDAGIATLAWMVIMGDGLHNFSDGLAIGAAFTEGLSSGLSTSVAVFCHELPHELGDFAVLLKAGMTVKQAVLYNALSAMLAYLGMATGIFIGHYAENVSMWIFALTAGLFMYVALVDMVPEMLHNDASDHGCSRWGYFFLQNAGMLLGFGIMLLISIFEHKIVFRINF
as §2

The target of assay [5] is T2, human LIV-1. Description: FACS, HEK293/H_LIV-1 cells. In a few lines:
as §1
The source holds these as a separate data set.

Assay [6] addresses T2, human LIV-1. Description: cell-based or functional assay.
Assay [7] concerns the target T2, human LIV-1. Description: cell-based or functional assay. This is another data set of the same source.
The target in assay [8] is T2, human LIV-1. Description: cell-based or functional assay. The source holds these as a separate data set.
In assay [9] the target is T1, cynomolgus LIV-1. Description: FACS, HEK293/Cyno_LIV-1 cells. The source holds these as a separate data set.
Target sequence in this assay (A0A2K5WH46 entry or part of it): as the sequence (A0A2K5WH46 entry or part of it) above
The target of assay [10] is T1, cynomolgus LIV-1. Description: FACS, cyno LIV-1 cells.
Target sequence in this assay (A0A2K5WH46 entry or part of it): as above
The target of assay [11] is T2, human LIV-1. Description: FACS, BT20/H_LIV-1 Low cells. As to the method: (§3) Cell based binding of ADC and naked of ADC on human LIV-1 expressing cells were assessed using flow cytometry. Briefly, HEK293/H_LIV-1, both low- and high-expressing H-LIV1-positive cell lines were incubated with ADC and naked of ADC (from 100 nM, 6 folds dilution, 8 points), respectively. After incubation at 4° C. for 60 minutes, the cells were washed with FACS buffer twice, then stained with fluorescent conjugated secondary antibody at 4° C. for 30 minutes. After that the cells were washed twice and analyzed by flow cytometry.

The target in assay [12] is T2, human LIV-1. Description: FACS, HEK293/H_LIV-1 cells. As to the method: as §3
The source holds these as a separate data set.

In assay [13] the target is T2, human LIV-1. Description: FACS, BT20/H_LIV-1 High cells. As to the method:
as §3

Assay [14] addresses T2, human LIV-1. Description: cell-based or functional assay. The source holds these as a separate data set.
In assay [15] the target is T2, human LIV-1. Description: FACS, human LIV-1 cells. The procedure: In this example, cell based binding of humanized antibodies (hu Abs) on human LIV-1-expressing cells were assessed using flow cytometry.
Cell based binding of hu-Abs on human LIV-1 expressing cells were assessed using flow cytometry. Briefly, the HEK293/H_LIV-1 cells were incubated with hu-Abs (from 100 nM, 6 folds dilution, 8 points). After incubation at 4° C. for 60 minutes, the cells were washed with FACS buffer twice, then stained with fluorescent conjugated secondary antibody at 4° C. for 30 minutes. After that the cells were washed twice and analyzed by flow cytometry.

The target in assay [16] is T2, human LIV-1. Description: cell-based or functional assay. This is another data set of the same source.
For assay [17], the target named is T2, human LIV-1. Description: cell-based or functional assay. The source holds these as a separate data set.

Like-named read-outs stand apart in the source and are kept apart here.

B1: 5D6B10 (antibody, V domains shown)
VH: QVQLKQSGPGLVQPSQSLSITCTVSGFSLTTYGIHWVRQSPGKGLEWLGVIWTGGTTDYNAAFISRLSISKDNSKSQVFFKMNSLQANDTAIYYCARGPSSYWGQGTLVTVSA
VL: DIVMTQSQKFMSTSVGDRVSVTCKASQNVDTNVVWYQQKPGQSPKALIHSASYRYSGVPDRFTGSGSGTDFTLTISNVQSEDLAEYFCQQYNNYPWTFGGGTKLEIK
notes: Tested as chimeric antibody
For the molecule B1, the EC50 in assay [1] stood at 0.17 nM; in [2], 0.53 nM; in [3], 0.29 nM; in assay [4] it was 0.27 nM; in assay [5] it was 0.21 nM; in assay [9] it was 0.39 nM. Besides, the “Top (MFI)” value was 41100 MFI in assay [1]; 13900 MFI in assay [2]; 61900 MFI in assay [3]; 38400 MFI in [4]; 70100 MFI in assay [5]; 25700 MFI in [9]. For the same molecule, the “Internalization EC50” value in assay [6] stood at 12.7 nM. Besides, the “Internalization Top (RFU)” value in assay [6] was found to be 145000 RFU. The “ADCC reporter EC50” value in assay [7] was found to be 0.3 nM. Moreover, the “ADCC reporter Top (RFU)” value in [7] stood at 121000 RFU. The “Cell viability(%)” value in assay [8] was found to be 16.4%. For the same molecule, the “Cytotoxicity IC50” value in assay [8] was 1.55 nM.

B2: 290F10G10.p1.Z2 (antibody, V domains shown)
VH: EVQLVQSGAEVKKPGASVKVSCKASGYTFTSYWIHWVRQAPGQGLEWMGTIYPGDADTRSTQKFKDRVTMTADTSTSTVYMELSSLRSEDTAVYYCARSLIHDDYDKYYFDYWGQGTTVTVSS
VL: DIQMTQSPSSLSASVGDRVTITCKARQDINKYIAWYQQKPGKAPKLLIHYTSILQPGIPSRFSGSGSGRDYTFTISSLQPEDIATYYCLQYDYFFTFGGGTKVEIK
notes: also called 290F10G10.z2; LM-001
On to B2, for which the EC50 in [10] came out at 0.38 nM; in assay [11], 1.43 nM; in assay [12], 0.7 nM; in assay [13], 1.06 nM; in [15], 0.24 nM. Besides, the “Top (MFI)” value in assay [10] stood at 7470 MFI; in [11], 3400 MFI; in assay [12], 17800 MFI; in assay [13], 18800 MFI; in [15], 7660 MFI. For the same molecule, the “Internalization EC50” value in [14] turned out to be 5 nM. In [14], the “Internalization Top (MFI)” value worked out at 112000 MFI.

B3: LM-001-LM-D03 (antibody, V domains shown)
VH: EVQLVQSGAEVKKPGASVKVSCKASGYTFTSYWIHWVRQAPGQGLEWMGTIYPGDADTRSTQKFKDRVTMTADTSTSTVYMELSSLRSEDTAVYYCARSLIHDDYDKYYFDYWGQGTTVTVSS
VL: DIQMTQSPSSLSASVGDRVTITCKARQDINKYIAWYQQKPGKAPKLLIHYTSILQPGIPSRFSGSGSGRDYTFTISSLQPEDIATYYCLQYDYFFTFGGGTKVEIK
modifications: LM-D03 drug-linker conjugated; site and chain not stated
As to B3, in assay [16], the “Bottom (% viability), BT20/H_LIV1-High expression” value worked out at 19.5% and the “Bottom (% viability), BT20/H_LIV1-Low expression” value was 46.9%.

B4: LM-001-DXD (antibody, V domains shown)
VH: EVQLVQSGAEVKKPGASVKVSCKASGYTFTSYWIHWVRQAPGQGLEWMGTIYPGDADTRSTQKFKDRVTMTADTSTSTVYMELSSLRSEDTAVYYCARSLIHDDYDKYYFDYWGQGTTVTVSS
VL: DIQMTQSPSSLSASVGDRVTITCKARQDINKYIAWYQQKPGKAPKLLIHYTSILQPGIPSRFSGSGSGRDYTFTISSLQPEDIATYYCLQYDYFFTFGGGTKVEIK
modifications: DXD drug moiety conjugated; site and chain not stated
Turning to B4, in assay [16], the “Bottom (% viability), BT20/H_LIV1-High expression” value was found to be 43.7% and the “Bottom (% viability), BT20/H_LIV1-Low expression” value worked out at 58.9%.

B5: LM-001-LM-D01 (antibody, V domains shown)
VH: EVQLVQSGAEVKKPGASVKVSCKASGYTFTSYWIHWVRQAPGQGLEWMGTIYPGDADTRSTQKFKDRVTMTADTSTSTVYMELSSLRSEDTAVYYCARSLIHDDYDKYYFDYWGQGTTVTVSS
VL: DIQMTQSPSSLSASVGDRVTITCKARQDINKYIAWYQQKPGKAPKLLIHYTSILQPGIPSRFSGSGSGRDYTFTISSLQPEDIATYYCLQYDYFFTFGGGTKVEIK
modifications: LM-D01 drug-linker conjugated; site and chain not stated
Turning to B5, in [16], the “Bottom (% viability), BT20/H_LIV1-High expression” value was 37.9% and the “Bottom (% viability), BT20/H_LIV1-Low expression” value is 48.4%.

B6: 290F10G10.z2-MMAE (antibody, V domains shown)
VH: EVQLVQSGAEVKKPGASVKVSCKASGYTFTSYWIHWVRQAPGQGLEWMGTIYPGDADTRSTQKFKDRVTMTADTSTSTVYMELSSLRSEDTAVYYCARSLIHDDYDKYYFDYWGQGTTVTVSS
VL: DIQMTQSPSSLSASVGDRVTITCKARQDINKYIAWYQQKPGKAPKLLIHYTSILQPGIPSRFSGSGSGRDYTFTISSLQPEDIATYYCLQYDYFFTFGGGTKVEIK
modifications: MMAE drug moiety conjugated; site and chain not stated
notes: also called LM-001-MMAE
In the case of B6, in assay [11], a half-maximal effect (EC50) was put at 0.68 nM and the “Top (MFI)” value was found to be 3570 MFI. Also, in assay [12], a half-maximal effect (EC50) was put at 0.34 nM and the “Top (MFI)” value turned out to be 19100 MFI. For the same molecule, in [13], the EC50 is 0.66 nM and the “Top (MFI)” value came out at 20800 MFI. In assay [17], the “Min cell viability %, BT20/H_LIV-1 High” value worked out at 14.7%; the “Min cell viability %, BT20/H_LIV-1 Low” value was 37.9%; the “Min cell viability %, HEK293/H_LIV-1” value was determined as 15.3%. Besides, in assay [16], the “Bottom (% viability), BT20/H_LIV1-High expression” value was determined as 29.1% and the “Bottom (% viability), BT20/H_LIV1-Low expression” value stood at 46.8%.

Values taken from patent US20240325555A1 (LANOVA MEDICINES, published 2024).
